Substitutions are numbered along the chain they refer to. Read-outs that look alike come from different tables or passages of the source.
B1: H2M3124N (antibody, V domains shown)
VH: EIQLIESGGDMVQPGGSLRLSCAASGISLNSYEMNWVRQTPGMGLEWISHISSSGTSIYYANSVKGRFTIFRDSAKNSLLLQMNSLRAEDTAIYYCARERYDHSGYYYLGMDVWGLGTTVTVSS
VL: DIQMTQSPSTLSASLGDRVTITCRASQNIDNWMAWYQQKVGKAPKLLIYRASTLETGVPSRFGGSGFGTEFTLTISSLQPGDFATYYCQEYNSYFRTFGQGTKVEIK
notes: also called H2aM3124N; H1M3124N
B2: H1H3325P (antibody, V domains shown)
VH: EVQLVESGGGLVQPGGSLRLSCAASGFTFNSFVMSWVRQAPGKGLEWVSAISGYGGSTYYADSMKGRFTVSRDNSKNTLYLQMNSLRAEDTAVYYCAKDHKDFYASGSYFNRDYYYGMDVWGQGTTVTVSS
VL: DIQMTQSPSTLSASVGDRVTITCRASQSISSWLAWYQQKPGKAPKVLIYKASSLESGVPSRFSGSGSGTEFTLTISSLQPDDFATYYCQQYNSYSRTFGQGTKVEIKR
B3: H2M3121N (antibody, V domains shown)
VH: EVQLVESGGDLVQPGGSLRLSCAASGVTFRTYEMNWVRQAPGKGLEWISHISSSGDIIYYTKSVKGRFTISRDNAKNSLFLQMTSLRAEDTAVYYCARERYSQYGYYYFGMDVWGQGTTVTVSS
VL: DIQMTQSPSTLSASIGDRVTITCRASQNTDKWMAWYQQKAGKAPKLLIYKASILESGVPSRFSGSGSGTEFTLTISSLQPDDFATYYCQEYNTYFRAFGQGTKVETR
notes: also called H2aM3121N; H1M3121N
B4: H1H3335P (antibody, V domains shown)
VH: EVQLVESGGGLVRPGGSLRLSCAASGFTFRIYAMSWVRQAPGKGLEWVSGISGSGDNTYYTDSVKGRFIISRDNSKSTLYLQMNSLRAEDTAVYYCARGWELLNYWGQGTLVTVSS
VL: DIQMTQSPSSLSAFVGDRVTITCRASQDISNHLAWFQQKPGKVPKSLIYAASSLQSGVPSKFSGSGSGTDFTLTISSLQPEDFATYYCQQYGLYPPTFGPGTKVDIKR
B5: H1H3339P (antibody, V domains shown)
VH: B4 VH with R13Q, A24V, R30S, G50A, N57K, T61A, I69T, S77N, Y94F
VL: B4 VL with F14S, Q27L, H32F, K42T, V43A, A50S, Q55R, S56T, G92S, L93S
B6: H1H3343P (antibody, V domains shown)
VH: EVQLVESGGGLVQPGGSLRLSCVASGFNFRIYAMSWVRQAPGKGPEWVSGISGSGDNTYYAASVKGRFTVSRDNSKNTLYLQMTSLRAEDTAVFYCARGWELLNYWGQGTLVTVSS
VL: B4 VL with F14S, Q27L, S30G, H32F, K42T, V43A, A50S, S56T, G92N, L93S
B7: H1H3337P (antibody, V domains shown)
VH: B4 VH with R13Q, R30S, D56G, N57R, T61A, I69T, S77N, A88V, Y105F
VL: B4 VL with F14S, D28G, H32N, V43A, Q55K, S76N, Q89H, G92N, L93S
B8: H1H3347P (antibody, V domains shown)
VH: EVQLVESGGGLVQPGGSLRLSCVASGFTFTSYAMSWVRQAPGRGLQWVSAIGGSGDSIYYADSVKGRFTISRDNSKNTLYLQMDSLRAEDTAVYYCARGWELLNYWGQGTLVTVSS
VL: B4 VL with F14S, S30G, H32F, V43A, Q55K, F62I, S76N, G92N, L93I
B9: H1H3344P (antibody, V domains shown)
VH: EVQLVESGGGLVQPGGSLRLSCAASGFTFKIYAMSWVRQGPGKGLEWVSAISGNGDKTYYTDSVQGRFTISRDNSKNTLFLQMNSLRAEDTAIYYCARGWELLNYWGQGTLVTVSS
VL: B4 VL with F14S, V15I, H32S, V43A, K61R, G92I, L93P, Y94F

Assays:
[1] = molecular target: T1, CBD-toxin A-Fc (Clostridium difficile, UniProt P16154 1848-2710); assay: SPR Biacore, CBD-A-Fc captured, 500 nM mAb flowed
T1 construct: also called CBD-A; C-term Toxin A

[2] = molecular target: T1, CBD-toxin A-Fc; assay: SPR Biacore, mAb capture and CBD-Fc capture formats
[3] = molecular target: T2, CBD-toxin B-Fc (Clostridium difficile, UniProt P18177 1851-2366); assay: as above
T2 construct: also called CBD-B; C-term Toxin B

[4] = molecular target: T3, Clostridium difficile toxin A, soluble full-length (TechLab) (Clostridium difficile, UniProt P16154 1-2710); assay: cell-based or functional assay
[5] = molecular target: T3, Clostridium difficile toxin A, soluble …; assay: SPR Biacore T200, 37C, mAb capture
[6] = molecular target: T4, Clostridium difficile toxin B, soluble full-length (TechLab) (Clostridium difficile, UniProt P18177 2-2366); assay: SPR Biacore T200, 37C, mAb capture
T4 construct: also called tcdB

[7] = molecular target: T5, C-term receptor Binding Domain (CBD) of toxin A (Clostridium difficile, UniProt P16154 1848-2710); assay: SEC (Superose 6) of CBD and mAb mixture
T5 construct: also called CBD-A; recombinant CBD of toxin A

[8] = molecular target: T1, CBD-toxin A-Fc; assay: SPR Biacore, mAb captured, 100 nM CBD-A-Fc flowed
[9] = molecular target: T3, Clostridium difficile toxin A, soluble …; assay: SPR Biacore T200, 37C, mAb capture; remark: listed apart in the source
[10] = molecular target: T2, CBD-toxin B-Fc; assay: SPR Biacore, CBD-B-Fc captured, 500 nM mAb flowed
[11] = molecular target: T4, Clostridium difficile toxin B, soluble …; assay: SPR Biacore T200, 37C, mAb capture; remark: listed apart in the source
[12] = molecular target: T4, Clostridium difficile toxin B, soluble …; assay: cell-based or functional assay
[13] = molecular target: T6, C-term receptor Binding Domain (CBD) of toxin B (Clostridium difficile, UniProt P18177 1851-2366); assay: SEC (Superose 6) of CBD and mAb mixture
T6 construct: also called CBD-B

Binder | binding (RU) [1] [RU] | binding result [2] | binding result [3] | binding result [7] | binding (RU) [8] [RU] | binding (RU) [10] [RU] | Kd [11] [nM] | T½ [11] [min] | koff [11] [s⁻¹] | kon [11] [M⁻¹ s⁻¹] | IC50, Vero cell viability (neutralization), Trial 1, 0.1 pM Toxin B [12] [pM] | IC50, Vero cell viability (neutralization), Trial 2, 0.1 pM Toxin B [12] [pM] | IC50, Vero cell viability (neutralization), Trial 3, 0.03 pM Toxin B [12] [pM] | binding result [13] | other results
B1 | 29 | no binding | no binding | no binding (tested: CBD at ~500 nM, CBD:Mab 1:5 and 1:20) | 0 | – | – | – | – | – | – | – | – | – | IC50, Vero cell viability (neutralization), Trial 1, 32 pM Toxin A [4]: 41 pM; IC50, Vero cell viability (neutralization), Trial 2, 32 pM Toxin A [4]: 21 pM; Kd [5]: 0.174 nM; T½ [5]: 58 min; koff [5]: 0.000198 s⁻¹; kon [5]: 1.14e+06 M⁻¹ s⁻¹; Kd [6]: ≤ 0.00302 nM; T½ [6]: 192 h; koff [6]: ≤ 1e-06 s⁻¹; kon [6]: 331000 M⁻¹ s⁻¹
B2 | 3 | no binding | – | no binding (tested: CBD at ~500 nM, CBD:Mab 1:5 and 1:20) | 17 | -8 | – | – | – | – | – | – | – | – | Kd [9]: 0.105 nM; T½ [9]: 209 min; koff [9]: 5.51e-05 s⁻¹; kon [9]: 527000 M⁻¹ s⁻¹; IC50, Vero cell viability (neutralization), Trial 4, 32 pM Toxin A [4]: 33 pM
B3 | 23 | no binding | no binding | no binding (tested: CBD at ~500 nM, CBD:Mab 1:5 and 1:20) | 0 | – | – | – | – | – | – | – | – | – | IC50, Vero cell viability (neutralization), Trial 1, 32 pM Toxin A [4]: 65 pM; IC50, Vero cell viability (neutralization), Trial 2, 32 pM Toxin A [4]: 35 pM; Kd [5]: 0.172 nM; T½ [5]: 69 min; koff [5]: 0.000166 s⁻¹; kon [5]: 969000 M⁻¹ s⁻¹; Kd [6]: 1.24 nM; T½ [6]: 2.53 h; koff [6]: 7.58e-05 s⁻¹; kon [6]: 61100 M⁻¹ s⁻¹
B4 | 5 | no binding | – | – | 13 | -6 | 2.34 | 28 | 0.000414 | 177000 | 730 | 380 | 120 | no binding (tested: CBD at ~500 nM, CBD:Mab 1:5 and 1:20) | –
B5 | 2 | no binding | – | – | 19 | -2 | 1.95 | 22 | 0.000537 | 276000 | 480 | 270 | 90 | no binding (tested: CBD at ~500 nM, CBD:Mab 1:5 and 1:20) | –
B6 | 3 | no binding | – | – | 11 | -4 | 1.58 | 26 | 0.000448 | 284000 | 280 | 200 | 50 | no binding (tested: CBD at ~500 nM, CBD:Mab 1:5 and 1:20) | –
B7 | 8 | – | – | – | -17 | – | 3.93 | 12 | 0.000945 | 241000 | 1730 | 980 | 320 | no binding (tested: CBD at ~500 nM, CBD:Mab 1:5 and 1:20) | –
B8 | -13 | – | no binding | – | 42 | – | 2.4 | 14 | 0.000813 | 339000 | 130 | 90 | 25 | no binding (tested: CBD at ~500 nM, CBD:Mab 1:5 and 1:20) | –
B9 | 5 | no binding | – | – | 5 | -2 | 4.24 | 13 | 0.000865 | 204000 | 580 | 400 | 40 | no binding (tested: CBD at ~500 nM, CBD:Mab 1:5 and 1:20) | –

Reference: patent publication US20160264650A1 (Regeneron, published 2016)
